Test results taken from the DeepSol protein solubility set.

Assay: soluble on expression in E. coli; label from the status in PepcDB or PDB records

Sequence	soluble on expression in E. coli
AHHHHHHGSRYVKLPKENTYEFLERLKDWGKLYAPVKISDKFYDFREIDDVRKIEFHYNRTIMPPKKFFFKPREKLFEFDISKPEYREVIEEVEPFIIFGVHACDIYGLKILDTVYLDEFPDKYYKVRREKGIIIGISCMPDEYCFCNLRETDFADDGFDLFFHELPDGWLVRVGTPTGHRLVDKNIKLFEEVTDKDICAFRDFEKRRQQAFKYHEDWGNLRYLLELEMEHPMWDEEADKCLACGICNTTCPTCRCYEVQDIVNLDGVTGYRERRWDSCQFRSHGLVAGGHNFRPTKKDRFRNRYLCKNAYNEKLGLSYCVGCGRCTAFCPANISFVGNLRRILGLEENKCPPTVSEEIPKRGFAYSSNIRGDGV	not soluble
MNEAEHSVEHPPVQGSHVEGGVVEHPDAKDFGSAAALPADPTWFKHAVFYEVLVRAFFDASADGSGDLRGLIDRLDYLQWLGIDCIWLPPFYDSPLRDGGYDIRDFYKVLPEFGTVDDFVALVDAAHRRGIRIITDLVMNHTSESHPWFQESRRDPDGPYGDYYVWSDTSERYTDARIIFVDTEESNWSFDPVRRQFYWHRFFSHQPDLNYDNPAVQEAMIDVIRFWLGLGIDGFRLDAVPYLFEREGTNCENLPETHAFLKRVRKVVDDEFPGRVLLAEANQWPGDVVEYFGDPNTGGDECHMAFHFPLMPRIFMAVRRESRFPISEIIAQTPPIPDMAQWGIFLRNHDELTLEMVTDEERDYMYAEYAKDPRMKANVGIRRRLAPLLDNDRNQIELFTALLLSLPGSPVLYYGDEIGMGDVIWLGDRDGVRIPMQWTPDRNAGFSTANPGRLYLPPSQDPVYGYQAVNVEAQRDTSTSLLNFTRTMLAVRRRHPAFAVGAFQELGGSNPSVLAYVRQVAGDDGDTVLCVNNLSRFPQPIELDLQQWTNYTPVELTGHVEFPRIGQVPYLLTLPGHGFYWFQLTTHEVGAPPTCGGERRL	soluble
GPGSMETFRERTLANRYQPRQHLPPEFPGVLKEYAREVLREQPEDILQWSANYFKRLAREMDAKPAGEHRMTAPALPHLESRPNTREEEEEEYGERLQQYIDMFVEHDSENNGVLPVKAIKEALLKSYGLTLPQALYVLTATQLVEKEPVNYAEFACESFPALRFVWSTEHNFQVSNREDTTVHGLSRIDVQQEFLKLLRFADRSDTSLLSIDQYMDVLRCAPYHLTTRDLRILRVEAELNERHEVNYEEELLHIFDRLLLAEQFAQLDSDD	soluble
MGSDKIHHHHHHVRALVVSVDNTARREGDTGRRVGMQPPEPPFPHNEKESTAVNFKEMQATLMHELRLYHYPVAVKFFFDQAEVDKFKAETEYYTPLKAMTFCQWQIAARMKGQTVYSEREGLGCSNAVFSFGWKDLDEAEVKSHAKYCKDLDQAKRFVETKSRLPEGLIGIAVAPLADATFMPDTVHFYCDNMQAYHLAVDYMAATDTHPLRPQITMNSSACGGNVYTMVEKQFNMLPACSGSYNAGKTERGEINVIIPGEQMQMVYERLLERMEKLGSSSITKPGDGFPGADVCKNCPLIVFKKAKD	not soluble
MNKRIVICADGTWNRPEKDLKVDFPTNVLRLARAISPIAADGKPQQVFYDWGVGSYYDEVIGGATGRGLHKNIMDGYRYIVQNYSPGDEIYLFGFSRGAYTVRCLCGLINNCGILKRPEARLIQQAFDHYKKSSAPFAPSGDKSVEFRHEHCHESREIKFVGVWDTVGAMGIPISFLGLFEDKDEFYDTKIGRNVRVARHALAIDEHRSDFEPTIWQLRDNMDMQQVWFAGAHSNVGGSYLPDKDGSLLSDNALAWMIAEAERFNLSLEPHLTAGLRPNPLATLHDSRRSFYRIKQPYLRPLDPDVAPVLLHRSVKVRWEQDPKYRPKNLQAYLEKFGWPQELIDKLAAALEHHHHHH	soluble
MKFAVIGGTGLIGSQVVKNLNAAGHEAVPHSQSTGIDVISGQGLDQAVAGADVIVNLTNSPTFDEASPAFFQTSMDNLLAAGRKAGVRHFVILSIVGVDQVPELDYYRAKALQEKILAAGPIPYSIVRATQFMEFIDAVLSWTADGDTVRLPATPIQPIAAKDVADAVAEVAAGAPLGGIRNVAGPEIFSLDELGRITLSHKSDGRTVVTDPTAGMFGAVKGDVLTDKDAHLAPTHYADWLS	not soluble
MGHHHHHHSHGTRQELSGNTKSRESIQEPRSDYYNHEVPDIDLSDCEFPHVIEIYDFPQEFRTEDLLRVFCSYQKKGFDIKWVDDTHALGVFSSPITARDALGIKHTMVKIRPLSQATRAAKAKARAYAEFLQPAKERPETSAALARRLVISALGVRSKQSKTEREAELKKLQEARERKRLEAKQREDIWEGRDQSTV	soluble
MNLKREQEFVSQYHFDARNFEWENENGAPETKVDVNFQLLQHDQENQVTSLIVILSFMIVFDKFVISGTISQVNHIDGRIVNEPSELNQEEVETLARPCLNMLNRLTYEVTEIALDLPGINLEF	soluble
MNKTYDFKSITENFNLEGELKTSDSHVCGHINDTFIINCEGENGEEIKYVLQRVNSDIFKNPEQLMENIENVTSHIKNKIIEENGDPLRETLNIVKTKEGKNFYKCKEGNYWRIFNFIHDASTYQIVEKPEHLYTAGKALGKFQKQLSDFNVDMLYDTIPDFHNTEKRFEAFMEAVREDKKGRAKDVKEEIDFVINRAEDTKVLVNMIKENKLPLRVTHNDTKFNNIMIDDETGEGIAVIDLDTVMPGLSLYDFGDSIRSGATTALEDEVDLSKVNFDLNLYEHFTKGFLESAGDAFTKEEIEYLPFAAKLMTFECGMRFLMDYLNGDVYFKIHRENHNLDRARNQFKLVSDMEKEMDNMKKIVYSYILEHHHHHH	not soluble
QRKKAEEALRLSNIYNRSLIESSLDPLVTIGRDGKITDVNCATEQVTGYPRNDLIKTDFSDYFTEPENARAGYKQVFTDGEVRDYPLEIQHKDGHITPVLYNASVYRDENGEVIGVFAAARDIT	not soluble
MKRLRNKMTTEELAECLGVAKQTVNRWIREKGWKTEKFPGVKGGRARLILVDTQVCEFIQNTPAFHNTPMLMEAEERIAEYAPGARAPAYRQIINAIDNMTDIEQEKVAQFLSREGIRNFLARLDIDESA	not soluble
MSLKILYISQEIFPYLPETDISVVSRKLPQTIQERGNEVRIFMPRYGIINERRNQLHEVIRLSGINMIINDNDHPLIIKVASIQSARMQVYFIDNDDFFKRKTMYDIKPKQENDNDERAIFFVRGALEAIKKLRWIPDVIHCHGWFTALAALYLKKMYADDPCLQKAKVVYSVYDDAGQGVIPETLFGKLGFDKITPDDLSVMEQSSDYLALNRLAIRYADGVIQGSETIAPELTDYISSLEGKAFLPYQGKEDYEEAFDNFYSDLLTANEGHHHHHH	soluble
FNWDRAMYSLITYFLAYKVIDIVIQGVDESKSAFIISRYYEEIGAEIMEQLGKGVTYLDATGGYSGDVRKVVFVIVSRFEEVKVKAILDEIDPDAFLAVGGSMSEVRGGKLMNTKTPHL	not soluble
EQEMVQVFIPAQAVGAIIGKKGQHIKQLSRFASASIKIAPPETPDSKVRMVIITGPPEAQFKAQGRIYGKLKEENFFGPKEEVKLETHIRVPASAAGRVIGKGGKTVNELQNLTAAEVVVPRDQTPDENDQVIVKIIGHFYASQMAQRKIRDILAQVKQQHQK	soluble
MGIPKEGEFVTIQSYKHDGHLHRTWRDTMVLKTSEYSLIGVNDHTLVTESDGRRWVTREPAIVYFHKKYWFNIIAMIREKGVSYYCNLASPYVLDDEALKYIDYDLDIKVFPDGEKRLLDVDEYEFHSKLMDYPEDIDFILKENVKTLVDWINNEKGPFSPEYVDIWYQRYQQLSKK	not soluble
MGSDKIHHHHHHMAGSVIHLDENAGPPATHGLVVGVGKYPHLEGGEAPVADSDGMRQLSSPPLSARAFARWLLAEYHDPQRPLGSVSLLLSEEQPAPFVNPRTGTAHEVEVATIDNILAAVTQWYDRGDSHVDNRLVFYFCGHGISQGDDMALLAADIFADPHNPLNGALDFAGLMNGLKRCKASQQVFFLDACRSNSDVLIEASGTRFAGRTPLGAGARPLDLPRRFHIPYYATLSGDQSHARPGQVSLFTEALLKSLAGAASDDPEGDWRVNTAHLLEAIDHFMHQPCFAGMVAGVQVPAVGELPVFVLHQLAGPPVVPVYVGCDPAQDNAEAEFVCLEGGRERLRRTLNDVDDTDPESEWAIELSFGDYDFEARLGERDVRTKTITVRPVFRRVHLVKS	not soluble
SVELSAGQSIIADAAGALGPVNRDDAPAATWREGRVSFSGTPLMQALAEFERYGDTGLVIRDPAVAALKVNGSFDLRQIGAFARALPRVLPVQLSTRDGQTEII	not soluble
MSLSHSIKPWHEACSKLARTSKPEAFNVDTLFAQLADDTNDTFYTVDPRWITQNAQQFSGCFPGTVLYAMKANPLVHVLEALSQGGINHFDVASLAEVQTVHNTLPNAVQYLMNPVKSRHCLHEAYYRHGVRSFVLDSEEELSKLRDVLPERDSTISMFVRYAPSESTAVYDLRGKFGASPALATQLVHQVAASTDWSLGLSFHVGSQAIEDGPWLAALDDADAIVRDTAQHVRHLDIGGGFPGNYLNSMGNTPDLVGRVCEHIQTSPTLKDLNLICEAGRGLVYGGMSLFARVLSRREHSVFCGAGIFGGLLSAQQWLQFPARVWRDAAPYAGSAEATFNIFGPTCDSMDRLAFPYSLASDIREGDWLEFQSTGAYSVSLRTPFNGFYADRIISLPSEGHHHHHH	soluble
SGRFSIKAKNYFLTYPKCDLTKENALSQITNLQTPTNKLFIKICRELHENGEPHLHILIQFEGKYNCTNQRFFDLVSPTRSAHFHPNIQGAKSSSDVKSYIDKDGDVLEWGTFQIDGR	soluble
MGSSHHHHHHSSGRENLYFQGMQCNTSIEDGLDGGDITFPSYSPEAEAQNRFLPRSEFPSVRQLVISKQKSRRRREENVFVGKMEDVLVKWRPPASSHRGAIEAINGTHPYQLSTAQFNSRRSDPFGSTKRDESVRSIVESFTDWWKRNSKMFFRDEEEGVRTEHSASQDDQELQLFEEDLFSFHLSPNDMSTRNSEHQVQTPVLFPYEAPTRTKQNPAERKVIEIGDGEELSIYRDVYSNPIPVSYLDTLNLNHSMSVRQTQQQQQQRQQQQYVDSSSAFQCCTDSNWARIFFCHHD	soluble
QSALTQPASVSGSPGQSITISCTGTSSDVGGYNYVSWYQQHPGKAPKLMIYGVTNRPSGVSNRFSGSKSGNTASLTISGLQAGDEADYYCSSYTSTRTPYVFGTGTKVEIKRTVAAPSVFIFPPSDEQLKSGTASVVCLLNNFYPREAKVQWKVDNALQSGNSQESVTEQDSKDSTYSLSSTLTLSKADYEKHKVYACEVTHQGLSSPVTKSFNRGEC	soluble
PSLSDEISPQGDGSFLIEGSTNIRDINKGLKWDLPTDGPRTLNGLILEHLEDIPESHLSVRVAGHPMEIVEIEENRIKLVRVYPKK	not soluble
MLSLDSRKIIHHHHHHHHHDIKDGGATTGEWIGQTDHDDSDNHHQHHHHHPWCSDEVLALLRFRSTVENWFPEFTWEHTSRKLAEVGFKRSPQECKEKFEEEERRYFNSNNNNNNNTNDHQHIGNYNNKGNNYRIFSEVEEFYHHGHDNEHVSSEVGDNQNKRTNLVEGKGNVGETVQDLMAEDKLRDQDQGQVEEASMENQRNSIEVGKVGNVEDDAKSSSSSSLMMIMKEKKRKKRKKEKERFGVLKGFCEGLVRNMIAQQEEMHKKLLEDMVKKEEEKIAREEAWKKQEIERVNKEVEIRAQEQAMASDRNTNIIKFISKFTDHDLDVVQNPTSPSQDSSSLALRKTQGRRKFQTSSSLLPQTLTPHNLLTIDKSLEPFSTKTLKPKNQNPKPPKSDDKSDLGKRWPKDEVLALINIRRSISNMNDDDHKDENSLSTSSKAVPLWERISKKMLEIGYKRSAKRCKEKWENINKYFRKTKDVNKKRPLDSRTCPYFHQLTALYSQPPTGTTATTATTATSARDLDTRPEENRVGSQDPDISVPMHVDGDGAGDKSNVQFSGFDLEF	soluble
